Results as given in article PMC2733336 (Insect biochemistry and molecular biology, 2009).

Experiments:
[1] = biological target: T1, cLac2 (endogenous cuticular laccase-2) (Manduca sexta, UniProt Q8I8Y0); assay: spectrophotometric, quinone formation at […] nm; format: biochemical; conditions: substrate inhibition (uncompetitive) constant; 100 mM sodium citrate pH 5; air
T1 sequence (Q8I8Y0 142-760): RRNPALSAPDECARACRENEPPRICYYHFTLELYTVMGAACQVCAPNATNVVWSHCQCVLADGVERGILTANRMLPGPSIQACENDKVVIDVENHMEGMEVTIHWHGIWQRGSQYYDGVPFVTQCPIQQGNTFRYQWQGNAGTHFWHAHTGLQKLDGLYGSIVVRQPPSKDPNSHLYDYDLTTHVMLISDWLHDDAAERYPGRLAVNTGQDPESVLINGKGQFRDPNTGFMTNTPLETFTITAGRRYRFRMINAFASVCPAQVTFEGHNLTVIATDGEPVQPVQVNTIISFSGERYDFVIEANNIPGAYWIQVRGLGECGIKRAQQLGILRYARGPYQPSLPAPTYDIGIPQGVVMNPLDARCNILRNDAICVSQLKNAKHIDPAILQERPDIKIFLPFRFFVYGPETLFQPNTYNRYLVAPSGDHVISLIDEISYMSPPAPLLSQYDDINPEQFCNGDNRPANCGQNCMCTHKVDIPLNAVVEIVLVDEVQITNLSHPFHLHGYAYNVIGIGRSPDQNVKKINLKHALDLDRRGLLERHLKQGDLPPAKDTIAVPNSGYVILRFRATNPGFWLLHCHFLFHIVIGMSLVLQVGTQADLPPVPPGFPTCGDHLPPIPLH

[2] = biological target: T2, rLac2 (full-length recombinant laccase-2) (Manduca sexta, UniProt Q8I8Y0); assay: spectrophotometric, quinone formation at […] nm; format: biochemical; conditions: substrate inhibition (uncompetitive) constant; 100 mM sodium citrate pH 5; air
T2 sequence (Q8I8Y0 24-760): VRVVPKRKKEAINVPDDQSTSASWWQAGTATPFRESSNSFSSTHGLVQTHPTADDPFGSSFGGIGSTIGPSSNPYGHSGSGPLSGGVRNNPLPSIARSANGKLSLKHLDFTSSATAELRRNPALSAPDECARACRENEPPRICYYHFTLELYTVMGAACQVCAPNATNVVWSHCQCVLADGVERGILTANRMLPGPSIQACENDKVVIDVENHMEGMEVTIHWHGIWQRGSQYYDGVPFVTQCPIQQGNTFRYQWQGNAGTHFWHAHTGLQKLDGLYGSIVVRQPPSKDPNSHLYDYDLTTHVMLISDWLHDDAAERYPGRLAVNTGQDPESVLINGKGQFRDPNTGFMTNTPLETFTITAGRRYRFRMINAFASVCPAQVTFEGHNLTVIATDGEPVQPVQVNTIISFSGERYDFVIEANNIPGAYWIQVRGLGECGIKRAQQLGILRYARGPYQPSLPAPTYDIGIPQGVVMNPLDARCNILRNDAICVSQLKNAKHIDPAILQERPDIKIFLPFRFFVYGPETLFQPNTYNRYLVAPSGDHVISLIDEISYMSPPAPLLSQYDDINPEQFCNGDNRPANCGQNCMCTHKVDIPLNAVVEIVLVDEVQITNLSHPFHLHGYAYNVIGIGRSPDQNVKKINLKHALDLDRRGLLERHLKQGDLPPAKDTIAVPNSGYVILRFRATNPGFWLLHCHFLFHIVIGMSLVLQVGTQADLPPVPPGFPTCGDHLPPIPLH

purified protein [3] = substrate: CC(=O)NCCc1ccc(O)c(O)c1; assay: purified protein; format: biochemical, Manduca sexta; conditions: 100 mM sodium citrate pH 5, air
purified protein [4] = substrate: CCn1c(=NN=c2sc3cc(S(=O)(=O)O)ccc3n2CC)sc2cc(S(=O)(=O)O)ccc21; assay: purified protein; format: biochemical, Manduca sexta; conditions: 100 mM sodium citrate pH 5, air, data not shown

Molecule: NCCC(=O)NCCc1ccc(O)c(O)c1 [NBAD]
- Ksi [1]: 9.7 ± 1.3 mM
- Ksi [2]: 6.7 ± 1.4 mM

B1: rLac2 (full-length recombinant laccase-2) (Manduca sexta) (protein)
chain: T2 sequence (Q8I8Y0 24-760)
- Km (purified protein [3]): 0.46 ± 0.05 mM
- Vmax (purified protein [3]): 3.1 ± 0.1 µM/min
- kcat (purified protein [3]): 1.67 ± 0.05 s⁻¹
- kcat/Km (purified protein [3]): 3670 M⁻¹ s⁻¹

B2: cLac2 (endogenous cuticular laccase-2) (Manduca sexta) (protein)
chain: T1 sequence (Q8I8Y0 142-760)
- Km (purified protein [3]): 0.63 ± 0.05 mM
- Vmax (purified protein [3]): 10.5 ± 0.25 µM/min
- kcat (purified protein [3]): 4.83 ± 0.117 s⁻¹
- kcat/Km (purified protein [3]): 7670 M⁻¹ s⁻¹
- Km (purified protein [4]): 1.5 mM
- kcat (purified protein [4]): 460 min⁻¹
